Reference: US11332546B2, “Protease inhibitory antibodies and methods of use thereof” (The Regents of The University of California, priority 2019, dated 2022)

How the values were obtained:
cdMMP-12 mutant D4 [1] = biological target: T1, cdMMP-12 mutant D4 (Homo sapiens, UniProt P39900, A167E/A173P/A252Q/H206S/I245T/K233R/M156E/N119Q/N126H/R135E/T215V/V161I/Y113D/Y132K); test: FRET peptide inhibition assay, cdMMP-12 D4; format: biochemical; settings: cdMMP-12 D4, FRET peptide, 31-500 nM Fab
T1 construct: hexahistidine (C); made in house; host or cells: E. coli BL21, pET32b (cytoplasmic, soluble fraction)
T1 sequence (P39900 106-263 Y113D/N119Q/N126H/Y132K/R135E/M156E/V161I/A167E/A173P/H206S/T215V/K233R/I245T/A252Q): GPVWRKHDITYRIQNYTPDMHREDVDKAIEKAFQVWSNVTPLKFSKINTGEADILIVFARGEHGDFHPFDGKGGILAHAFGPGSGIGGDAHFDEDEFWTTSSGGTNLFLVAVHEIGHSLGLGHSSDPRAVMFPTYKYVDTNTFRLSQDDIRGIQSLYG
Protocol: (§1) FRET peptide inhibition assays In 96-well assay plates (Corning), 60/250/350/10/10/30 nM of (cd)MMP-1/-7/-9/-12 D4/-12 wt/-14 were preincubated with 1 nM-1 μM purified Fabs for 30 min at room temperature then 1 μM substrate M-2350 (Bachem) was added. Generated fluorescent signals (λEx=328 nm, λEm=393 nm) were monitored at 37° C. to measure the initial velocities. To calculate inhibition constants (KIs), data were fit with the equations for slow tight-binding inhibitors. The inhibition type of the Fabs was determined using the initial velocities of cdMMP-12 D4 as a function of substrate concentration (250-2000 nM) at various Fab concentrations (31-500 nM). The values of Vmax and Km were derived from linearization in accordance with the Lineweaver-Burk equation.

cdMMP-12 wt [2] = biological target: T2, cdMMP-12 wt (Homo sapiens, UniProt P39900); test: FRET peptide inhibition assay, cdMMP-12 wt; format: biochemical; settings: toward cdMMP-12 wild type; listed as LH6
T2 construct: hexahistidine (C); made in house; host or cells: E. coli BL21 (pET32b, cytoplasmic)
T2 sequence (P39900 106-263): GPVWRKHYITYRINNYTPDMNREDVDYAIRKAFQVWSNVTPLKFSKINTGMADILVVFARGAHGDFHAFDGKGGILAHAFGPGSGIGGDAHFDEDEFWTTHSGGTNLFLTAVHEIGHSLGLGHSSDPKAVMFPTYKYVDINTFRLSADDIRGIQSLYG
Protocol: as §1

cdMMP-12 wt [3] = biological target: T2, cdMMP-12 wt; test: Fibronectin proteolysis inhibition, cdMMP-12 wt (western blot); format: biochemical
MMP-1 = biological target: T3, MMP-1 (Homo sapiens, UniProt P03956); test: FRET peptide inhibition assay, MMP-1; format: biochemical; settings: listed as LH6
T3 construct: purchased AnaSpec
T3 sequence (P03956 100-469): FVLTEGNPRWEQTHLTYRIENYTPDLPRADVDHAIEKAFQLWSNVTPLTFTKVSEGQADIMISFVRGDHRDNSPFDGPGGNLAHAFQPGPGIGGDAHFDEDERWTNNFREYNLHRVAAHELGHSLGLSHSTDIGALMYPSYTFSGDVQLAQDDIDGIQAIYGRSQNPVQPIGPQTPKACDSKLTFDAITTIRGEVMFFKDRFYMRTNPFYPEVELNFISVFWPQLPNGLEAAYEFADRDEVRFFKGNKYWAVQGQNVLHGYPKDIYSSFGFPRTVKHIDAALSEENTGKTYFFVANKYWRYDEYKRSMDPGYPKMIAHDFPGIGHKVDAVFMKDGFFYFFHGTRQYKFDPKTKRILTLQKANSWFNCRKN
Protocol: as §1

MMP-7 = biological target: T4, MMP-7 (Homo sapiens, UniProt P09237); test: FRET peptide inhibition assay, MMP-7; format: biochemical; settings: listed as LH6
T4 construct: purchased AnaSpec
T4 sequence (P09237 95-267): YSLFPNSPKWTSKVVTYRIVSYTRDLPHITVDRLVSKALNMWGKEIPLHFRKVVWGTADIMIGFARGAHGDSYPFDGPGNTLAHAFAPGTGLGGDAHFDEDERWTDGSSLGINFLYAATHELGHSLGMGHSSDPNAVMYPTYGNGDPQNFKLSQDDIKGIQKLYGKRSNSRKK
Protocol: as §1

cdMMP-9 [4] = test: FRET peptide inhibition assay, cdMMP-9 (Example 2); format: biochemical
Sequence of cdMMP-9 (P14780 with tags, fused parts or gaps DEL216-390 limits assumed): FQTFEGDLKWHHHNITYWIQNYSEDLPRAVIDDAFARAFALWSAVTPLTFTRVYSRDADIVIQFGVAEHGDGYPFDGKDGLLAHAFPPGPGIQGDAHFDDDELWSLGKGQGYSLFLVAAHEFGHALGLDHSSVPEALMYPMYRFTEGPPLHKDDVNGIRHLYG
Protocol: as §1

cdMMP-9 [5] = test: Bio-layer interferometry on cdMMP-9; format: binding
cdMMP-12 mutant D4 [6] = biological target: T1, cdMMP-12 mutant D4; test: Proteolytic stability of Fabs with cdMMP-12 D4; format: physicochemical; settings: 2 μM Fab, 2 μM cdMMP-12 D4, 4 h, 37° C.
Protocol: (§2) Proteolytic stability tests 2 μM purified Fabs were incubated with 2 μM cdMMP-12 wt/D4 in 50 mM HEPES, 150 mM NaCl pH 7.5 at 37° C. for 4 h. Samples were analyzed by using 12% non-reducing SDS-PAGE and stained with Coomassie blue. Densitometric interpretation was conducted using a ChemiDoc imager (Bio-Rad).

cdMMP-12 wt [7] = biological target: T2, cdMMP-12 wt; test: Proteolytic stability of Fabs with cdMMP-12 wt; format: physicochemical; settings: 2 μM Fab, 2 μM cdMMP-12 wt, 4 h, 37° C.
Protocol: as §2

cdMMP-14 [8] = biological target: T5, cdMMP-14 (Homo sapiens, UniProt P50281); test: FRET peptide inhibition assay, cdMMP-14 (Example 2); format: biochemical; design: human MMP-14 (residue 114-320); hexahistidine (C); made in house; host or cells: E. coli periplasm
Protocol: as §1

cdMMP-14 [9] = biological target: T5, cdMMP-14; test: Bio-layer interferometry on cdMMP-14; format: binding; design: human MMP-14 (residue 114-320); hexahistidine (C); made in house; host or cells: E. coli periplasm

Type of inhibition (Lineweaver-Burk) (cdMMP-12 mutant D4 [1]): substrate competitive manner
Inhibition FRET peptide (cdMMP-12 wt [2]): non-
Inhibition Fibronectin IC50 (cdMMP-12 wt [3]; toward cdMMP-12 wild type, 200 nM enzyme, 200 nM fibronectin): Inhib.
Inhibition of MMP-1 (selectivity) (MMP-1): did not inhibit and non-
Inhibition of MMP-7 (selectivity) (MMP-7): did not inhibit and non-
Ki (cdMMP-9 [4]; FRET peptide, read-out: K1 toward cdMMP-9): 1.5 µM
KD fold, cdMMP-9 compared with cdMMP-12 wt (cdMMP-9 [5]): (2.2-fold),
Kd (cdMMP-9 [5]; read-out: KD toward cdMMP-9): 0.95 µM
K1 fold, cdMMP-14 compared with cdMMP-12 mutant D4 (cdMMP-14 [8]): (52-fold)
KD fold, cdMMP-14 compared with cdMMP-12 wt (cdMMP-14 [9]): (1.1-fold),
B1: Fab LH6: anti-MMP-12 antibody clone; VL SEQ ID NO:118, VH SEQ ID NO:120, CDR-H3 SEQ ID NO:123 (antibody, V domains shown)
VH: EVQLVESGGGLVQPGGSLRLSCAASGFNLSYSYMHWVRQAPGKGLEWVASIYPSYGSTYYADSVKGRFTISADTSKNTAYLQMNSLRAEDTAVYYCARDLEESLPKRARTAVSKELESVPYVMDYWGQGTLVTVSSAS
VL: DIQMTQSPSSLSASVGDRVTITCRASQSVSSAVAWYQQKPGKAPKLLIYSASSLYSGVPSRFSGSRSGTDFTLTISSLQPEDFATYYCQQSSHYASPPITFGQGTKVEIKR
Fibronectin remaining after cdMMP-12 wt hydrolysis (cdMMP-12 wt [3]; 6 μM Fab, 350 nM wt cdMMP-12, 200 nM fibronectin, 37° C.): significant amounts of fibronectin remained
K1 fold, cdMMP-9 compared with cdMMP-12 mutant D4 (cdMMP-9 [4]): (16-fold)
Degradation of Fab by cdMMP-12 D4 (cdMMP-12 mutant D4 [6]): no significant degradation
Fab remained intact after exposure to cdMMP-12 wt (cdMMP-12 wt [7]): 56%
